Data from patent US20160311918A1, “Anti-Ron Monoclonal Antibodies as a Cytotoxic Drug Delivery System for Targeted Cancer Therapy” (TEXAS TECH UNIVERSITY SYSTEM, priority 2013, published 2016).
Several values for one entry are separate records, joined by “and”; a condition that tells them apart may be missing. Equal values may be shown once.

What was measured:
[1] = Stability of Zt/g4-DM1 at 37° C. by HIC (DAR); assay type: physicochemical
Source text: FIGS. 1A to 1C show the generation and characterization of anti-RON ADC Zt/g4-DM1. FIG. 1A: Schematic representation of Zt/g4-DM1 structure: Zt/g4 is a mouse mAb specific to the RON sema domain (18). DM1 was conjugated to Zt/g4 by non-reducible thioether linkage (SMCC) through lysine residues in the antibody molecule. FIG. 1B: HIC analysis of the number of DM1 conjugated to Zt/g4: Individual Zt/g4-DM1s with different numbers of DM1 (0 to 8) are marked as P0 to P8. FIG. 1C: Stability of Zt/g4-DM1. Zt/g4-DM1 was kept at 37° C. for 30 days. Samples analyzed at different time-points with the average DARs were shown;
Analysis of Zt/g4-DM1 conjugation and its stability: The conjugation of DM1 to Zt/g4 was verified by hydrophobic interaction chromatography (HIC) using a Varian Prostar 210 Quaternary HPLC system coupled with a TSK butyl-NPR 4.6×3.5 column (Tosoh Biosciences (Prussia, Pa.) (31). The average DARs were calculated from the integrated areas of the DAR species. This method also was used to determine the stability of Zt/g4-DM1 at 37° C.
The stability of Zt/g4-DM1 was determined by incubating the conjugates in vitro at 37° C. for 30 days. DAR changes were measured by HIC from different time-points.

[2] = target: RON (Homo sapiens, UniProt Q04912); test: Immunofluorescent localization of cytoplasmic RON in HT29 cells; assay type: cell-based; conditions: 5 μg/ml, 6 h
Sequence of RON (Q04912 310-1400 limits assumed): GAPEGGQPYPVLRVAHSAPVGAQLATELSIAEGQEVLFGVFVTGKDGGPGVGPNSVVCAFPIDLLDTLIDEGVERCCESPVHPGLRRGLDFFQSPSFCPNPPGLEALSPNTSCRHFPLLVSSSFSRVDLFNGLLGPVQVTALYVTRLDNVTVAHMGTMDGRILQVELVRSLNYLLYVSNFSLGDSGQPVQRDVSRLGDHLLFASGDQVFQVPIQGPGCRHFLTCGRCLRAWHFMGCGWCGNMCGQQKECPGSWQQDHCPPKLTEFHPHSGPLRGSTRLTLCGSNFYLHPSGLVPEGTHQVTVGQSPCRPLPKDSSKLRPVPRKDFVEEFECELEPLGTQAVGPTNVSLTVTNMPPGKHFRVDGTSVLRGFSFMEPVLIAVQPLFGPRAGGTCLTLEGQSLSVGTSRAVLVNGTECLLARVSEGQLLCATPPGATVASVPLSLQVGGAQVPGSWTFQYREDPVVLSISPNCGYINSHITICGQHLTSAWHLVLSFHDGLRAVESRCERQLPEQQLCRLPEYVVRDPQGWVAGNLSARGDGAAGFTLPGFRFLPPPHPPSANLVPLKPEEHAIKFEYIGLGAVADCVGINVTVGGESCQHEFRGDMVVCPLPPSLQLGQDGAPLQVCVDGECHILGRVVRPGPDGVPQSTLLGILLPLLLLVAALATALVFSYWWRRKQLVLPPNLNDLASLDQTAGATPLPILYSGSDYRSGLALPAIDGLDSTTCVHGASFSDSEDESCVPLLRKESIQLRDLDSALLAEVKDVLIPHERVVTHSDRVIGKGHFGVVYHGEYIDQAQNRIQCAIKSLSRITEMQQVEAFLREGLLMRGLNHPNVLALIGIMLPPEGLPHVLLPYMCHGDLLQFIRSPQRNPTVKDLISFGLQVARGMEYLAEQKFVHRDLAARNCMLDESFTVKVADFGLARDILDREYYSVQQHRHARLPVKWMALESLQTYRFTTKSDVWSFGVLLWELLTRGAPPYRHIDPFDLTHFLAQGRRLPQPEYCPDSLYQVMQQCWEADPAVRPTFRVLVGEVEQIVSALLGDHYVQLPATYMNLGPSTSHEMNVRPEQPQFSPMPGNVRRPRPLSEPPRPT
Sequence of RON (Q04912 25-304 limits assumed): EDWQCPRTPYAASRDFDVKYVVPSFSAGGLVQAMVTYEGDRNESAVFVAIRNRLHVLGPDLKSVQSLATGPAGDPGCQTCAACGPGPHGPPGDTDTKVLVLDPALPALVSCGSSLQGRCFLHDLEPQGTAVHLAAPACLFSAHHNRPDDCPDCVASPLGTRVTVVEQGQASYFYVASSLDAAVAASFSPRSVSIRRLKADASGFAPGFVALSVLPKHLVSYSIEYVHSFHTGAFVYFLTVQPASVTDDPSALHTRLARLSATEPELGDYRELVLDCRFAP

[3] = test system: SW620-derived tumors; test: SW620 mouse xenograft tumor model; assay type: in vivo; conditions: single dose 20 mg/kg
Experimental: Athymic nude mice (five mice per group) were subcutaneously inoculated with 5×10^6 HCT116, HT29, and SW620 cells followed by injection of 20 mg/kg Zt/g4-DM1 through tail vein. FIG. 4A: Tumor growth from HT29-luc2 or HCT116-luc2 cells was determined by measuring average photon intensity (left panel). SW620-derived tumor growth was monitored by measuring tumor volume (FIG. 4B) (right panel). FIG. 4C: Tumor images with photon emission or caliper measurement at day 16 are presented. The scale from minimal to maximal is set at 300 to 35,000 photons per second. The percentages of inhibition were calculated from the average photon emission (for HT29 and HCT116 cells) or tumor volume (for SW620 cells). […] The percentages of inhibition were calculated by a formula: (average tumor weight from Zt/g4-DM1 treated group/average tumor weight from control mice)×100%;
Mouse xenograft CRC model and anti-RON ADC treatment: All mice studies were approved by the institutional animal care committee. […] Bioluminescence from individual tumors was measured every four days using Caliper IVIS image system (PerkinElmer). Tumor volumes from SW620-derived tumors were measured according to a formula: V=pi/6×1.58×(length×width)^3/2 (18,33). […]
The inventors first determined the efficacy of a single dose of Zt/g4-DM1 at 20 mg/kg body weight on tumors derived from HCT116, HT29, and SW620 cells. […]

[4] = test system: CRC cell-mediated tumor growth; test: Mouse xenograft CRC models, single dose, all three lines; assay type: in vivo; conditions: single dose 20 mg/kg
Experimental: Mouse xenograft CRC model and anti-RON ADC treatment: All mice studies were approved by the institutional animal care committee. Female athymic nude mice at 6 weeks of age (Taconic, Cranbury, N.J.) were injected with 5×10^6 HT29-Luc2, HCT116-luc2, or SW620 cells in the subcutaneous space of the right flank as previously described (18,33). Mice were randomized into different groups (five mice per group). […] The single-dose group received a tail vein injection of 20 mg/kg Zt/g4-DM1 in 0.1 ml PBS followed by observation for 28 days. The multi-dose study was performed by treating mice with Zt/g4-DM1 at 1, 3, 7, 10, and 15 mg/kg every four days for a total of five injections. Bioluminescence from individual tumors was measured every four days using Caliper IVIS image system (PerkinElmer). Tumor volumes from SW620-derived tumors were measured according to a formula: V=pi/6×1.58×(length×width)^3/2 (18,33). Animals were euthanized when tumor volumes exceeded 2000 mm^3 or if tumors became necrotic or ulcerated through the skin.
The inventors first determined the efficacy of a single dose of Zt/g4-DM1 at 20 mg/kg body weight on tumors derived from HCT116, HT29, and SW620 cells. Tumor growth by HCT116-luc2 and HT29-luc2 cells was measured by bioluminescence emitted from tumor cells. SW620-mediated tumors were evaluated by tumor volume (18,34). […]

B1: Zt/g4-DM1: anti-RON mouse mAb Zt/g4 conjugated to maytansinoid DM1 via non-reducible thioether linkage (SMCC), DAR about 4:1 (conjugate)
VH: EVQLQQSGAELVKPGASVKLSCTTSGFNIIDTYIHWVNQKPDQGLEWIGRIDPADGNRKSDPKFQVKATITVDTSSNTAYLQLSSLTSGDTAVYYCARGYGNLNAMDSWGQGTSVTVSS
VL: DIQMNQSPSSLSASLGDTITITCHASQNINVWLNWYQQKPGNIPKLLIYKASNLHTGVPSRFSGSGSGTGFTLTISSLQPEDIATYYCQQGQSYPLTFGGGTKLEIK
time stable at 37° C. [1]: up to 30 days
peak 5 share of conjugates at day 30 ([1]; 25.39% at day 0): 20.06%
peak 4 share of conjugates at day 30 ([1]; 39.05% at day 0): 32.72%
reduction in DAR after 30 days ([1]; day 30 vs day 0): 6.4% and 6.5%
average DAR at day 30 ([1]; in vitro, HIC): 3.484
RON endocytosis by immunofluorescence [2]: intracellular localization of internalized RON occurred at 37 °C
inhibition in tumor volume ([3]; day 16): 82%
inhibition rate by average tumor weight ([3]; day 28): 61.9%
duration of tumor growth delay [4]: up to 20 days
duration of efficacy without signs of tumor regrowth ([4]; day 4 to day 16): up to 12 days
